The text below walks through data of the supplement of paper PMC10567573.

Sequences and labels used below:
B1: SLC19A2 (parent)
chain: FHHIPSTCQRVNGIKVQNGGIVTD
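Note: lentivirally expressed fusions sorted by FACS into six bins by GFP to DsRed ratio, PSI derived from sequencing read proportions per bin multiplied by bin number.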

The variants in the series derive from B1. Description: protein stability index of a GFP-peptide fusion (GPS, HEK-293T) (PSI 1-6); higher = more stable. Particulars: c terminus: a fixed tail appended.
Regarding FHHIPSDCQRVNGIKVQNGGIVTD [T7D], the protein stability index turned out to be 2.58.

FHHIPSLCQRVNGIKVQNGGIVTD [T7L]: the protein stability index was 2.59.

For the variant FHHIPSVCQRVNGIKVQNGGIVTD [T7V], the protein stability index was 2.

As for FHHIPSKCQRVNGIKVQNGGIVTD [T7K], the protein stability index is 2.23.

Turning to FHHIPSMCQRVNGIKVQNGGIVTD [T7M], the protein stability index is 2.03.

Turning to FHHIPSSCQRVNGIKVQNGGIVTD [T7S], the protein stability index stood at 2.31.

In the case of FHHIPSYCQRVNGIKVQNGGIVTD [T7Y], the protein stability index was 1.91.

As to FHHIPSECQRVNGIKVQNGGIVTD [T7E], the protein stability index is 2.32.

As for FHHIPSICQRVNGIKVQNGGIVTD [T7I], the protein stability index was found to be 1.45.

As to FHHIPSPCQRVNGIKVQNGGIVTD [T7P], the protein stability index is 1.91.

Regarding FHHIPSQCQRVNGIKVQNGGIVTD [T7Q], the protein stability index was found to be 1.83.

Turning to FHHIPSACQRVNGIKVQNGGIVTD [T7A], the protein stability index was 1.39.

For the variant FHHIPSFCQRVNGIKVQNGGIVTD [T7F], the protein stability index is 3.29.

As to FHHIPSNCQRVNGIKVQNGGIVTD [T7N], the protein stability index amounted to 2.42.

With FHHIPSRCQRVNGIKVQNGGIVTD [T7R], the protein stability index was found to be 1.77.

For FHHIPSCCQRVNGIKVQNGGIVTD [T7C], the protein stability index is 2.21.

Take FHHIPSGCQRVNGIKVQNGGIVTD [T7G]: the protein stability index amounted to 1.57.

As for FHHIPSHCQRVNGIKVQNGGIVTD [T7H], the protein stability index worked out at 2.3.

For the variant FNHIPSTCQRVNGIKVQNGGIVTD [H2N], the protein stability index was determined as 3.73.

FIHIPSTCQRVNGIKVQNGGIVTD [H2I]: the protein stability index was found to be 2.04.

Take FYHIPSTCQRVNGIKVQNGGIVTD [H2Y]: the protein stability index was 1.85.

For the variant FVHIPSTCQRVNGIKVQNGGIVTD [H2V], the protein stability index stood at 2.35.

FCHIPSTCQRVNGIKVQNGGIVTD [H2C]: the protein stability index was determined as 2.28.

Turning to FGHIPSTCQRVNGIKVQNGGIVTD [H2G], the protein stability index worked out at 3.01.

Consider FMHIPSTCQRVNGIKVQNGGIVTD [H2M], for which the protein stability index stood at 2.47.

For FAHIPSTCQRVNGIKVQNGGIVTD [H2A], the protein stability index came to 2.73.

For FSHIPSTCQRVNGIKVQNGGIVTD [H2S], the protein stability index amounted to 3.17.

For FPHIPSTCQRVNGIKVQNGGIVTD [H2P], the protein stability index amounted to 3.26.

Regarding FFHIPSTCQRVNGIKVQNGGIVTD [H2F], the protein stability index was determined as 2.03.

As to FWHIPSTCQRVNGIKVQNGGIVTD [H2W], the protein stability index stood at 3.

Take FLHIPSTCQRVNGIKVQNGGIVTD [H2L]: the protein stability index was determined as 2.21.

Turning to FKHIPSTCQRVNGIKVQNGGIVTD [H2K], the protein stability index came out at 2.52.

Consider FTHIPSTCQRVNGIKVQNGGIVTD [H2T], for which the protein stability index is 2.4.

Consider FRHIPSTCQRVNGIKVQNGGIVTD [H2R], for which the protein stability index is 2.61.

Turning to FEHIPSTCQRVNGIKVQNGGIVTD [H2E], the protein stability index came out at 3.65.

Turning to FDHIPSTCQRVNGIKVQNGGIVTD [H2D], the protein stability index came to 3.31.

For FQHIPSTCQRVNGIKVQNGGIVTD [H2Q], the protein stability index is 2.83.

For the variant FHGIPSTCQRVNGIKVQNGGIVTD [H3G], the protein stability index is 2.31.

For FHCIPSTCQRVNGIKVQNGGIVTD [H3C], the protein stability index amounted to 1.92.

For FHWIPSTCQRVNGIKVQNGGIVTD [H3W], the protein stability index worked out at 2.18.

Take FHIIPSTCQRVNGIKVQNGGIVTD [H3I]: the protein stability index is 1.59.

As to FHKIPSTCQRVNGIKVQNGGIVTD [H3K], the protein stability index is 2.79.

On to FHAIPSTCQRVNGIKVQNGGIVTD [H3A], for which the protein stability index was determined as 2.22.

Consider FHEIPSTCQRVNGIKVQNGGIVTD [H3E], for which the protein stability index was found to be 2.53.

Regarding FHFIPSTCQRVNGIKVQNGGIVTD [H3F], the protein stability index is 1.39.

As to FHYIPSTCQRVNGIKVQNGGIVTD [H3Y], the protein stability index came out at 2.11.

Take FHRIPSTCQRVNGIKVQNGGIVTD [H3R]: the protein stability index turned out to be 2.53.

As to FHMIPSTCQRVNGIKVQNGGIVTD [H3M], the protein stability index worked out at 2.8.

Regarding FHTIPSTCQRVNGIKVQNGGIVTD [H3T], the protein stability index came to 2.06.

With FHQIPSTCQRVNGIKVQNGGIVTD [H3Q], the protein stability index was found to be 1.71.

As for FHPIPSTCQRVNGIKVQNGGIVTD [H3P], the protein stability index worked out at 2.03.

With FHDIPSTCQRVNGIKVQNGGIVTD [H3D], the protein stability index was 3.

Turning to FHVIPSTCQRVNGIKVQNGGIVTD [H3V], the protein stability index came out at 3.16.

Take FHSIPSTCQRVNGIKVQNGGIVTD [H3S]: the protein stability index was 1.33.

Regarding FHNIPSTCQRVNGIKVQNGGIVTD [H3N], the protein stability index worked out at 2.25.

Turning to FHLIPSTCQRVNGIKVQNGGIVTD [H3L], the protein stability index worked out at 1.96.

As for FHHGPSTCQRVNGIKVQNGGIVTD [I4G], the protein stability index came out at 2.48.

For FHHYPSTCQRVNGIKVQNGGIVTD [I4Y], the protein stability index turned out to be 2.67.

FHHEPSTCQRVNGIKVQNGGIVTD [I4E]: the protein stability index was 2.77.

On to FHHAPSTCQRVNGIKVQNGGIVTD [I4A], for which the protein stability index is 2.11.

Take FHHVPSTCQRVNGIKVQNGGIVTD [I4V]: the protein stability index worked out at 1.67.

On to FHHHPSTCQRVNGIKVQNGGIVTD [I4H], for which the protein stability index was 1.85.

For FHHPPSTCQRVNGIKVQNGGIVTD [I4P], the protein stability index worked out at 2.37.

For FHHFPSTCQRVNGIKVQNGGIVTD [I4F], the protein stability index was determined as 3.14.

Regarding FHHDPSTCQRVNGIKVQNGGIVTD [I4D], the protein stability index was determined as 2.91.

FHHNPSTCQRVNGIKVQNGGIVTD [I4N]: the protein stability index was 2.07.

On to FHHMPSTCQRVNGIKVQNGGIVTD [I4M], for which the protein stability index came out at 2.01.

FHHTPSTCQRVNGIKVQNGGIVTD [I4T]: the protein stability index turned out to be 2.

On to FHHLPSTCQRVNGIKVQNGGIVTD [I4L], for which the protein stability index came out at 2.37.

As for FHHCPSTCQRVNGIKVQNGGIVTD [I4C], the protein stability index is 1.67.

As to FHHQPSTCQRVNGIKVQNGGIVTD [I4Q], the protein stability index stood at 2.1.

For the variant FHHSPSTCQRVNGIKVQNGGIVTD [I4S], the protein stability index came to 3.05.

Turning to FHHRPSTCQRVNGIKVQNGGIVTD [I4R], the protein stability index turned out to be 2.02.

Consider FHHKPSTCQRVNGIKVQNGGIVTD [I4K], for which the protein stability index stood at 1.94.

As to FHHIISTCQRVNGIKVQNGGIVTD [P5I], the protein stability index was found to be 1.97.

For the variant FHHIESTCQRVNGIKVQNGGIVTD [P5E], the protein stability index turned out to be 2.83.

For FHHIWSTCQRVNGIKVQNGGIVTD [P5W], the protein stability index came to 2.91.

In the case of FHHINSTCQRVNGIKVQNGGIVTD [P5N], the protein stability index came out at 2.11.

For the variant FHHIKSTCQRVNGIKVQNGGIVTD [P5K], the protein stability index stood at 2.61.

For the variant FHHICSTCQRVNGIKVQNGGIVTD [P5C], the protein stability index was 1.86.

Take FHHIYSTCQRVNGIKVQNGGIVTD [P5Y]: the protein stability index came out at 2.33.

Turning to FHHIDSTCQRVNGIKVQNGGIVTD [P5D], the protein stability index is 2.71.

Turning to FHHITSTCQRVNGIKVQNGGIVTD [P5T], the protein stability index stood at 2.67.

On to FHHIMSTCQRVNGIKVQNGGIVTD [P5M], for which the protein stability index came to 2.23.

Take FHHIRSTCQRVNGIKVQNGGIVTD [P5R]: the protein stability index turned out to be 1.58.

With FHHIQSTCQRVNGIKVQNGGIVTD [P5Q], the protein stability index amounted to 1.89.

As to FHHIGSTCQRVNGIKVQNGGIVTD [P5G], the protein stability index amounted to 2.12.

Regarding FHHILSTCQRVNGIKVQNGGIVTD [P5L], the protein stability index was 1.86.

As to FHHIVSTCQRVNGIKVQNGGIVTD [P5V], the protein stability index turned out to be 1.91.

Consider FHHIASTCQRVNGIKVQNGGIVTD [P5A], for which the protein stability index was determined as 1.97.

Take FHHIHSTCQRVNGIKVQNGGIVTD [P5H]: the protein stability index worked out at 1.79.

With FHHISSTCQRVNGIKVQNGGIVTD [P5S], the protein stability index worked out at 3.55.

Turning to NHHIPSTCQRVNGIKVQNGGIVTD [F1N], the protein stability index was found to be 3.25.

Take EHHIPSTCQRVNGIKVQNGGIVTD [F1E]: the protein stability index stood at 4.27.
